Experiments:
AncSZ = experiment: phosphorylation enrichment, bacterial display (enrichment ratio); higher = better substrate or ligand; peptides without Tyr show the background
EPHB1 = EPHB1 (UniProt P54762); experiment: as above
EPHB2 = EPHB2 (UniProt P29323); experiment: as above
FGFR1 = FGFR1 (UniProt P11362); experiment: as above
FGFR3 = FGFR3 (UniProt P22607); experiment: as above
Fer (mouse) = experiment: as above
Fes = Fes (UniProt P07332); experiment: as above
Fyn = Fyn (UniProt P06241); experiment: as above
Fyn, sequence (P06241 whole entry, looked up): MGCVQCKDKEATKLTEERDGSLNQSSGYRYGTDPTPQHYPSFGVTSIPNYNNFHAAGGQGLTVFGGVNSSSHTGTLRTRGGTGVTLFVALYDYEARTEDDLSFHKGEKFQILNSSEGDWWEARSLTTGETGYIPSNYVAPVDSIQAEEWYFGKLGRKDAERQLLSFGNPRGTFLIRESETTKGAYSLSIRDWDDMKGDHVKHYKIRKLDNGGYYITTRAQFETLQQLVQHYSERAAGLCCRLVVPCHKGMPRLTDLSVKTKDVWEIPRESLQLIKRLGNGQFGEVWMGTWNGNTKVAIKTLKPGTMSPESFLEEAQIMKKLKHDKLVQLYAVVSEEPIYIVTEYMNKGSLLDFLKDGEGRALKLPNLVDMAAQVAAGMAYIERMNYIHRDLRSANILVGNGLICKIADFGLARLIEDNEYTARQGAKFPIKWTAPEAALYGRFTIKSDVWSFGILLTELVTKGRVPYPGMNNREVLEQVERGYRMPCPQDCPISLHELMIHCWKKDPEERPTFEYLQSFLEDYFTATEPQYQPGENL

Hck = Hck (UniProt P08631); experiment: as above
Hck, sequence (P08631 whole entry, looked up): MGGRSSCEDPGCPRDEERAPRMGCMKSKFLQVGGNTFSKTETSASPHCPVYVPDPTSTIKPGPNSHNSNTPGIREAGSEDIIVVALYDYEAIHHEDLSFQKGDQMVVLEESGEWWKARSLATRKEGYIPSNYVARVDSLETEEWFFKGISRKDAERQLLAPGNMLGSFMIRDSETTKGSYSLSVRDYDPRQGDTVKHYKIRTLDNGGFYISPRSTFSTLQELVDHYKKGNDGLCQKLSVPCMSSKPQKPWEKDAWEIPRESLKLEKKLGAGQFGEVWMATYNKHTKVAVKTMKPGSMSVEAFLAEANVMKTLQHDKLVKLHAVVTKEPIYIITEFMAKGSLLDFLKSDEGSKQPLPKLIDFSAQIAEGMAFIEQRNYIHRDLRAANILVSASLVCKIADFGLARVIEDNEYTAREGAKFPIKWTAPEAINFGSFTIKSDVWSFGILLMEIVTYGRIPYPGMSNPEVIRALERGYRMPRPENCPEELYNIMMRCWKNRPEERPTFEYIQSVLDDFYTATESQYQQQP

Jak2 = Jak2 (UniProt O60674); experiment: as above
MERTK = MERTK (UniProt Q12866); experiment: as above
MERTK, sequence (Q12866 whole entry, looked up): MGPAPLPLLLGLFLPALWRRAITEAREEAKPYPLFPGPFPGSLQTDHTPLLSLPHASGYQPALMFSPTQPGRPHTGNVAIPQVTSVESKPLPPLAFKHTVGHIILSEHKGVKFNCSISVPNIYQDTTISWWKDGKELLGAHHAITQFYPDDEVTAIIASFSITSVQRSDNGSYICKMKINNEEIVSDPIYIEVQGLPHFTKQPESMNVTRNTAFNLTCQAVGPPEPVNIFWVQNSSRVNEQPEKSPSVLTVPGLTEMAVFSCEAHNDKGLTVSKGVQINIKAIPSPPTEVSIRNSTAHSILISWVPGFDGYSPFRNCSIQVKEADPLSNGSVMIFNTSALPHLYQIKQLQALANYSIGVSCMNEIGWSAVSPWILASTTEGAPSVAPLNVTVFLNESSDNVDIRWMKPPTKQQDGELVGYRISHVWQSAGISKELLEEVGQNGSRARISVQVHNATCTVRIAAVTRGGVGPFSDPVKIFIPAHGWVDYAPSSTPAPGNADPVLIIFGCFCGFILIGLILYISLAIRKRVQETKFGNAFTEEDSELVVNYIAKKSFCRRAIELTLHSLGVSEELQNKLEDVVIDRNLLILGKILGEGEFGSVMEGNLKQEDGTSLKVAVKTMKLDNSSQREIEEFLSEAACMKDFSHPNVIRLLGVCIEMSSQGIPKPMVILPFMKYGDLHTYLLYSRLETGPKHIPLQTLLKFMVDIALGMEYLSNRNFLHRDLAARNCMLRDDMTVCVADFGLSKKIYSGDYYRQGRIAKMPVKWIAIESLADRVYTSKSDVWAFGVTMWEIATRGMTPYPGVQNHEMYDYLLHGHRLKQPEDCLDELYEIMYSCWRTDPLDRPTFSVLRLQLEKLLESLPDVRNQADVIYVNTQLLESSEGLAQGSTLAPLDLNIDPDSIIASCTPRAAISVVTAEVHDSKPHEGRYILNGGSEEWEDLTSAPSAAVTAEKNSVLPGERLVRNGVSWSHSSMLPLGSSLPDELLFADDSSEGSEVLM

c-Abl (mouse) = experiment: as above
c-Src = experiment: as above
Grb2 SH2 = Grb2 SH2 (UniProt P62993); experiment: SH2 binding enrichment of the phosphorylated peptide, bacterial display (enrichment ratio); higher = better substrate or ligand; peptides without Tyr show the background
Grb2 SH2, sequence (P62993 whole entry, looked up): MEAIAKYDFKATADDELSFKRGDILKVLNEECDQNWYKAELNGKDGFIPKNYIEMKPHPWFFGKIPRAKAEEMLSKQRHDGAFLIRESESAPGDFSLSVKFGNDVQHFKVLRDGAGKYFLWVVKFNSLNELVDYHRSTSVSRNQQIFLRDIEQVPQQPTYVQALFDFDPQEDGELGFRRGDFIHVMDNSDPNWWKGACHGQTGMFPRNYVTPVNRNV

SHP2-C SH2 = experiment: as above
c-Src SH2 = experiment: as above
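Wherever SH2 binding enrichment of the phosphorylated peptide, bacterial display is given: peptide library displayed on the E. coli surface as eCPX fusions, selected cells deep-sequenced, score is each peptide's frequency after selection divided by its frequency in the input.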
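Wherever phosphorylation enrichment, bacterial display is given: 11-residue human phosphosite peptides and single-mutation variants displayed on the E. coli surface, counted by deep sequencing, each peptide's frequency after selection divided by its frequency in the unselected input library; frequency after pTyr selection over input frequency; kinase dosed for 20-30% of maximal phosphorylation in three min.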

Fes, sequence (P07332 whole entry, looked up): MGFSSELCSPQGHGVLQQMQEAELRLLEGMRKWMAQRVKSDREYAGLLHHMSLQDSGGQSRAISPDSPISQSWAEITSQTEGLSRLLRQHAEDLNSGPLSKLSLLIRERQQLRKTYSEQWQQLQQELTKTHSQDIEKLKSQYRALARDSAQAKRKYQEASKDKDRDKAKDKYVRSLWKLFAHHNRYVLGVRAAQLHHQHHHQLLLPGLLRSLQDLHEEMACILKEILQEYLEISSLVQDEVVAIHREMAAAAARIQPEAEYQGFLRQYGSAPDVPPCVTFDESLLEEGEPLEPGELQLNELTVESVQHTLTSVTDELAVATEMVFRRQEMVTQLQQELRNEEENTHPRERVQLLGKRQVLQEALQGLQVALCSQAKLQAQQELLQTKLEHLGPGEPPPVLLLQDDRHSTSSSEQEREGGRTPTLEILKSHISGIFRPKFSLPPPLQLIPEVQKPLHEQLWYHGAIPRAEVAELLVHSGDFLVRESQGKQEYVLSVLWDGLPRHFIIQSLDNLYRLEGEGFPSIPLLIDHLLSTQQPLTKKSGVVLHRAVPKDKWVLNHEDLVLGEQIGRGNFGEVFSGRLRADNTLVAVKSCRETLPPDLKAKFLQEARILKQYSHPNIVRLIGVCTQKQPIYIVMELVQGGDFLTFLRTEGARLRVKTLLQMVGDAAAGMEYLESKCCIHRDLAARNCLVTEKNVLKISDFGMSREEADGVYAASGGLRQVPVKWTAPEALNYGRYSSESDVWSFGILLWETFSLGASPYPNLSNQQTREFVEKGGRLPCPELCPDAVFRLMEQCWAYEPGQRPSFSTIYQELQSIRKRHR
EPHB1, sequence (P54762 whole entry, looked up): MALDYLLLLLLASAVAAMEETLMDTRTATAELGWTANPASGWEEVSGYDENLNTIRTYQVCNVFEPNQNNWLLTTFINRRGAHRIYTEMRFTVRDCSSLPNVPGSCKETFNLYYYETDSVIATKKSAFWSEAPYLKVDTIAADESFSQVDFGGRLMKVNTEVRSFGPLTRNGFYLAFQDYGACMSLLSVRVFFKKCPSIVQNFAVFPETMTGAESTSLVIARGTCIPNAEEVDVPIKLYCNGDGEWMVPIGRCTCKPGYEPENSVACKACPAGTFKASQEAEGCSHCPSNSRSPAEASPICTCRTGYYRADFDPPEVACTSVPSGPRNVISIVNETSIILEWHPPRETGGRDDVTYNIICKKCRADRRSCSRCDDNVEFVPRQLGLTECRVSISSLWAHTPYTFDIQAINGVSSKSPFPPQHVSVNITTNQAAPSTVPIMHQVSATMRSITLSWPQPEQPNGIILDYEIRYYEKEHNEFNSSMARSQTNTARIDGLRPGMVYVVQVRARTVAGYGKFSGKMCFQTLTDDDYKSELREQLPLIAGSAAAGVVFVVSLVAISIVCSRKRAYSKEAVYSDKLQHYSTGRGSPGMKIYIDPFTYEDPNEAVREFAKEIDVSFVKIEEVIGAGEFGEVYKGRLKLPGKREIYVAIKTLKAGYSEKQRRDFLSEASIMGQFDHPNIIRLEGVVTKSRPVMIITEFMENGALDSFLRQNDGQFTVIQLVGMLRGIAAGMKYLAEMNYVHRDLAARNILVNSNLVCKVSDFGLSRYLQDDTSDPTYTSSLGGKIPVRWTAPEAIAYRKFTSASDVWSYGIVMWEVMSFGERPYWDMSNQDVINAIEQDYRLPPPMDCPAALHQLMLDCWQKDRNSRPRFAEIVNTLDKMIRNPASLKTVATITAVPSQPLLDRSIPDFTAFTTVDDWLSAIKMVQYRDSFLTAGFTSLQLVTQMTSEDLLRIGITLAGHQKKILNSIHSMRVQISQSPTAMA
FGFR3, sequence (P22607 whole entry, looked up): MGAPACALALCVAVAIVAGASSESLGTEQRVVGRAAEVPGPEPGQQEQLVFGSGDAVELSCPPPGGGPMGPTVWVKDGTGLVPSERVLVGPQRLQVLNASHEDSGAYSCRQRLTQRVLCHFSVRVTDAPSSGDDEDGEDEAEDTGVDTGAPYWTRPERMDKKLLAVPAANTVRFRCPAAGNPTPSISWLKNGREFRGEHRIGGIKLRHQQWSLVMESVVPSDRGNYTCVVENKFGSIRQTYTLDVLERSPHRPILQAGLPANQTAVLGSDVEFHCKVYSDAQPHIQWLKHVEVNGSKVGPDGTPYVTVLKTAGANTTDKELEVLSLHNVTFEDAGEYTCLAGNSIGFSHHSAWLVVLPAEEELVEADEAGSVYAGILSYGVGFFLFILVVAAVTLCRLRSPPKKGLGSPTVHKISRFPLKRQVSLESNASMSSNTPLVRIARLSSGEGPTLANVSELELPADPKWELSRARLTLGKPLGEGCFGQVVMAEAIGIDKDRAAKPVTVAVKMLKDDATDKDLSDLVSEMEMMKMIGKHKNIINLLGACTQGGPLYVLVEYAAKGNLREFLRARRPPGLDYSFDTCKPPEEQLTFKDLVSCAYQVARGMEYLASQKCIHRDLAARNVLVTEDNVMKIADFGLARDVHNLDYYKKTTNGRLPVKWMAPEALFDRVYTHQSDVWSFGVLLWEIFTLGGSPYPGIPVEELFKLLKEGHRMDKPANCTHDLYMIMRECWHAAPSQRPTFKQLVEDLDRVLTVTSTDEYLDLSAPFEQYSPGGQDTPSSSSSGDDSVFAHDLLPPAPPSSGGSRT

Sequence	phosphorylation enrichment (AncSZ)	phosphorylation enrichment (EPHB1)	phosphorylation enrichment (EPHB2)	phosphorylation enrichment (FGFR1)	phosphorylation enrichment (FGFR3)	phosphorylation enrichment (Fer (mouse))	phosphorylation enrichment (Fes)	phosphorylation enrichment (Fyn)	phosphorylation enrichment (Hck)	phosphorylation enrichment (Jak2)	phosphorylation enrichment (MERTK)	phosphorylation enrichment (c-Abl (mouse))	phosphorylation enrichment (c-Src)	SH2 binding enrichment (Grb2 SH2)	SH2 binding enrichment (SHP2-C SH2)	SH2 binding enrichment (c-Src SH2)
PFFASYPPSPD [GDAP2_Y491_T489A_YF]	1.03	0.99	0.865	0.747	0.839	0.435	1.23	0.784	1.11	1.02	0.769	0.859	0.488	1.01	0.847	0.658
PFRKLYESVKK [MKI67_Y241_W238R]	0.931	0.516	0.368	2.28	0.685	0.458	0.695	0.454	0.563	1.16	0.612	1	0.491	0.973	0.711	0.714
PFTRNYFVRAV [CYBA_Y87_YF]	1.04	0.413	0.708	0.788	0.739	0.408	0.967	0.533	0.595	0.93	0.544	0.868	0.419	0.868	0.327	0.519
PGPQSYPTVTG [PAX5_Y299_I301T]	0.819	0.79	0.725	0.811	0.539	0.63	0.888	0.828	0.582	0.892	0.707	1.06	0.594	0.787	0.824	0.513
PHMQTYEVDLN [SDHB_Y61]	1.17	0.978	0.797	0.61	0.755	1.02	1.29	0.906	0.804	1.12	0.51	0.649	1.04	1.01	0.716	0.874
PIFEGYALPHA [ACTA1_Y171_YF]	0.82	0.546	0.574	0.536	0.665	0.49	0.778	0.536	0.541	0.717	0.807	2.44	0.562	0.877	0.769	4.62
PINEPYGDDMD [JUP_Y693]	2.44	0.944	0.985	1.15	1.34	0.837	1.75	1.03	0.981	1.89	0.919	1.25	0.858	1.04	1.05	0.601
PKSLFYLLLKL [TRPC6_Y775]	2.5	1.04	1.89	1.12	1.48	1.51	2.82	0.31	0.716	4.8	1.54	2.62	1.74	0.998	1.31	0.747
PLDGEYFTLQV [TP53_Y327_I332V]	3.87	2.21	1.44	12.8	10.6	0.842	1.94	5.07	2.74	2.16	0.494	1.02	2.09	0.688	0.598	0.483
PLFRVYGLESL [INSR_Y94_L89P]	1.2	0.803	0.673	0.58	0.686	0.571	1.43	1.03	0.574	1.43	0.508	1.15	0.864	0.851	0.663	0.345
PLLEYYRDIFT [CDAN1_Y713]	1.7	1.38	1.25	6.73	5.58	1.02	1.81	0.704	0.846	4.74	0.782	1.45	0.789	1.16	0.777	1.04
PLQKIYNFNVL [SLC4A1_Y553_T552I_YF]	0.985	0.743	0.84	0.793	0.684	0.795	1.44	1.43	1.12	1.19	0.811	1.06	2.63	1.29	1.08	0.906
PLQKTYNHNVL [SLC4A1_Y553_Y555H]	0.657	0.576	0.591	0.479	0.524	0.659	0.946	0.531	0.291	0.892	0.744	0.833	0.686	0.908	0.607	0.659
PLQSEYSSIST [ITGB4_Y1760_T1764S]	2.59	1.81	2.28	0.944	0.925	1.08	1.28	1.27	1.93	0.822	0.582	1.49	1.3	0.844	0.826	1.17
PMFTKYGNSLL [RPGRIP1L_Y196]	1.45	1.07	0.643	0.645	0.912	1.44	1.73	0.558	0.636	1.44	0.708	1.49	0.951	0.952	0.679	0.749
PNATLYKMTSI [SERPINA7_Y40_S43T]	0.883	0.642	1.02	0.86	0.668	0.477	1.5	0.604	0.636	1.16	0.918	1.3	1.04	0.768	0.684	0.272
PNEAVYTKMMT [G6PD_Y401]	1	0.506	0.479	0.555	0.571	6.07	0.972	2.31	1.96	0.838	1.48	0.674	4.58	0.899	0.811	2

Sequence	phosphorylation enrichment (AncSZ)	phosphorylation enrichment (EPHB1)	phosphorylation enrichment (EPHB2)	phosphorylation enrichment (FGFR1)	phosphorylation enrichment (FGFR3)	phosphorylation enrichment (Fer (mouse))	phosphorylation enrichment (Fes)	phosphorylation enrichment (Fyn)	phosphorylation enrichment (Hck)	phosphorylation enrichment (Jak2)	phosphorylation enrichment (MERTK)	phosphorylation enrichment (c-Abl (mouse))	phosphorylation enrichment (c-Src)	SH2 binding enrichment (Grb2 SH2)	SH2 binding enrichment (SHP2-C SH2)	SH2 binding enrichment (c-Src SH2)
PNRILYGDFQQ [MYH7_Y715_R719Q]	0.601	0.504	0.516	0.422	0.475	0.375	0.798	4.31	1.42	0.861	0.408	0.549	3.04	0.823	0.935	0.503
PQGVSYIYTID [DCX_Y103_R102S]	1.62	0.985	0.856	1.06	1.64	0.728	1.79	10.6	5.22	1.55	3.15	1.32	6.93	1.05	13	0.644
PRSRSYSSTSI [REPS2_Y462]	1.11	0.538	0.523	0.743	0.611	0.57	1.71	1.06	0.468	1.2	1	0.932	1.33	0.893	0.423	0.388
PSFSEYASVQV [SIRPA_Y496]	1.11	6.25	8.42	1.05	1.05	3.49	0.801	2.49	1.93	1.02	0.474	4.02	2.35	0.997	0.952	0.705
PSGPMYRGAVP [ASAH1_Y43_T42M]	0.617	0.34	0.539	0.392	0.573	0.347	1.21	0.467	0.48	0.67	0.483	0.68	0.334	0.926	0.842	0.472
PSNTEYPGPHS [TP63_Y171_D170E]	0.806	0.774	0.671	0.56	0.497	0.498	0.832	0.507	0.477	0.568	0.383	0.696	0.41	1.48	0.362	0.373
PSTFRYERGSR [INPPL1_Y663_P659S_YF]	0.51	0.368	0.47	0.411	0.429	0.352	0.484	0.408	0.345	0.459	0.366	0.628	0.491	0.811	0.879	0.47
PTTKTYFLHFD [HBA1_Y43_P45L]	1.66	1.34	1.14	3.23	2.62	0.532	1.79	0.813	0.816	1.98	0.844	1.51	0.695	1.36	1.35	0.985
PTTKTYFPQFD [HBA1_Y43_H46Q]	0.83	0.672	0.58	0.576	0.636	0.499	0.922	0.617	0.611	0.737	0.428	0.597	0.74	0.772	1.11	0.59
PTTKTYFPRFD [HBA1_Y43_H46R]	0.569	0.493	0.421	0.455	0.432	0.505	0.772	0.319	0.38	0.731	0.373	0.609	0.421	0.819	0.91	0.446
PVDGEYFTLQI [TP53_Y327_L323V]	4.07	1.16	1.36	11.4	9.07	1.31	1.86	4.09	2.38	3.14	0.623	1.38	3.58	0.785	0.744	0.512
PVDTYYDSTRG [DYNC2H1_Y2231_M2227V]	1.18	0.934	0.608	2.01	1.58	0.713	1.12	1.09	1.31	0.909	0.554	0.953	0.955	1.08	0.667	0.835
PVDVAYRHGYF [PLEC_Y2967_R2969H]	1.71	0.752	1.48	0.863	1.1	0.543	1.05	0.536	0.695	1.9	0.687	1.4	0.905	1.21	0.701	0.611
PVQAAYKKVVA [HBB_Y131_Q132K]	0.645	0.545	0.278	0.534	0.485	0.226	0.762	0.506	0.479	0.486	0.578	0.73	0.687	0.834	0.613	0.524
PVRIAYDRPRG [SUGP2_Y985]	0.923	0.464	0.691	0.384	0.653	0.746	0.737	0.486	0.426	1.44	0.591	0.671	0.609	0.641	0.764	0.623
PYIDSYEKDVA [PGM1_Y521_L516P]	1.66	0.907	0.857	0.907	1.08	0.852	1.48	0.684	0.725	1.61	0.763	0.961	0.703	0.802	0.724	0.647

From the supplement of paper PMC10065799, “High-throughput profiling of sequence recognition by tyrosine kinases and SH2 domains using bacterial peptide display” (eLife, 2023)
